The values that follow come from patent US20260242478A1 (published 2026).

Where no end group is shown, it is not given here.

Assay [1] concerns the target T1, Anti-CD28 Fab (SEQ ID NOs: 696, 697).
T1 construct: Biotinylated and captured on neutravidin coated plates in the phage ELISA
Put plainly: phage binding ELISA, Fab on plate pre-incubated with CD28 antigen as competitor. A general note: In an ELISA, binding on a coated surface is turned into a signal by an enzyme label.
T1 sequence (VH, as listed by the source, chain 1 of 2): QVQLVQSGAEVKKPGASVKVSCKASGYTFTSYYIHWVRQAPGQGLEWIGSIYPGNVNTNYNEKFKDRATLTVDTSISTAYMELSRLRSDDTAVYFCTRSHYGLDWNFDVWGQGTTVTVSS
T1 sequence (VL, as listed by the source, chain 2 of 2): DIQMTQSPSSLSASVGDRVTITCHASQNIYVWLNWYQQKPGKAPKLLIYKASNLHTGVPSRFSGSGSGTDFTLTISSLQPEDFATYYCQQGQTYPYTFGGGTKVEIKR
Description: (§1) After panning, phage infected bacteria were plated out and colonies picked into 96 well blocks. Clonal phage was then amplified and separated from bacterial cells via centrifugation.
(§2) Clonal phage were harvested as crude supematants and screened via standard ELISAs. […] Prior to the addition of clonal phage, wells were incubated with blocking buffer and CD28 antigen or blocking buffer alone. Without washing or aspirating, clonal phage supematants were then added to the wells and incubated for a short time. Wells were then washed followed by detection of bound phage using a horse radish conjugated anti-M13 antibody. Clonal phage of interest were then sent for sequence analysis.

The target is the same in assay [2]. Put plainly: phage binding ELISA, biotinylated Fab on neutravidin plate, anti-M13 HRP detection.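 Also: crude clonal phage supernatants added to Fab-coated wells pretreated with CD28 antigen or with blocking buffer only, bound phage measured after washing.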
Target sequence in this assay (VH, as listed by the source, chain 1 of 2): as the sequence (VH, as listed by the source, chain 1 of 2) above
Target sequence in this assay (VL, as listed by the source, chain 2 of 2): as the sequence (VL, as listed by the source, chain 2 of 2) above
Description: as §1, §2
Assay [3] concerns the target T2, Anti-CD28 Fab (SEQ ID NOs: 696, 697).
T2 construct: In the phage ELISA the Fab was biotinylated and captured on neutravidin coated plates
Nature of the assay: phage binding ELISA on captured anti-CD28 Fab; competitor: CD28 antigen.
T2 sequence (VH, as listed by the source, chain 1 of 2): as the sequence (VH, as listed by the source, chain 1 of 2) above
T2 sequence (VL, as listed by the source, chain 2 of 2): as the sequence (VL, as listed by the source, chain 2 of 2) above
Description: as §1, §2

The target is the same in assay [4]. Put plainly: phage binding ELISA; biotinylated anti-CD28 Fab on neutravidin plate, bound phage detected with anti-M13 HRP.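 Also: crude supernatants of clonal phage screened, wells pretreated with blocking buffer with or without CD28 antigen before brief phage incubation, washed, then bound phage detected.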
Target sequence in this assay (VH, as listed by the source, chain 1 of 2): as the sequence (VH, as listed by the source, chain 1 of 2) above
Target sequence in this assay (VL, as listed by the source, chain 2 of 2): as the sequence (VL, as listed by the source, chain 2 of 2) above
Description: as §1, §2
Assay [5] addresses Anti-CD28 Fab (SEQ ID NOs: 696, 697). Nature of the assay: phage binding ELISA; captured anti-CD28 Fab pre-incubated with CD28 antigen as competitor, anti-M13 HRP.
Target sequence in this assay (VH, as listed by the source, chain 1 of 2): as the sequence (VH, as listed by the source, chain 1 of 2) above
Target sequence in this assay (VL, as listed by the source, chain 2 of 2): as the sequence (VL, as listed by the source, chain 2 of 2) above
Description: as §1, §2
The target is the same in assay [6]. Nature of the assay: phage binding ELISA; biotinylated anti-CD28 Fab on neutravidin plate, clonal phage supernatant, anti-M13 HRP.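 Also: crude clonal phage supernatants screened after wells were preincubated either with CD28 antigen in blocking buffer or with blocking buffer only, phage added without washing.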
Target sequence in this assay (VH, as listed by the source, chain 1 of 2): as the sequence (VH, as listed by the source, chain 1 of 2) above
Target sequence in this assay (VL, as listed by the source, chain 2 of 2): as the sequence (VL, as listed by the source, chain 2 of 2) above
Description: as §1, §2

B1: Phage-560 (peptide)
peptide: YCDGHVPEYMAKCL
notes: Clonal phage of the Peptide-87 library, tested as crude supernatant; not shown: pIII of the bacteriophage to which the peptide is fused
In the case of B1, the “Anti-CD28 Fab signal in the presence of CD28” value (from here on “Anti-CD28 Fab signal … of CD28”) in assay [1] turned out to be 0.07. Moreover, in assay [2], the “Anti-CD28 Fab (SEQ ID NOs: 696, 697) signal” value came to 2.29.

B2: Phage-567 (peptide)
peptide: YCEGHLPIYLEKCM
With B2, in assay [3], the “Anti-CD28 Fab signal … of CD28” value stood at 0.1. Besides, the “Anti-CD28 Fab signal” value in assay [4] is 2.27.

B3: Phage-586 (peptide)
peptide: YCEGHAPMYMWKCL
As to B3, the “Anti-CD28 Fab signal … of CD28” value in assay [5] was 0.08. In addition, the “Anti-CD28 Fab (SEQ ID NOs: 696, 697) signal” value in assay [6] was 2.23.

B4: Phage-565 (peptide)
peptide: YCDGHSSEYMAKCL
notes: as for B1
Turning to B4, the “Anti-CD28 Fab signal … of CD28” value in assay [1] amounted to 0.09. Also, the “Anti-CD28 Fab (SEQ ID NOs: 696, 697) signal” value in assay [2] turned out to be 2.28.

B5: Phage-583 (peptide)
peptide: YCQGHLPIYMEKCL
Regarding B5, the “Anti-CD28 Fab signal … of CD28” value in assay [5] was 0.09. For the same molecule, in assay [6], the “Anti-CD28 Fab (SEQ ID NOs: 696, 697) signal” value stood at 2.24.

B6: Phage-571 (peptide)
peptide: YCEGHLGIYMYKCL
modifications: cysteine pairing not given here; also: displayed on phage by fusion to pIII, pIII and linker sequence not given here
With B6, the “Anti-CD28 Fab signal … of CD28” value in assay [3] stood at 0.14. Also, the “Anti-CD28 Fab signal” value in assay [4] was 2.26.

B7: Phage-562 (peptide)
peptide: YCQGHAPEYMAKCL
notes: as for B1
On to B7, for which, in assay [1], the “Anti-CD28 Fab signal … of CD28” value worked out at 0.1. In addition, the “Anti-CD28 Fab (SEQ ID NOs: 696, 697) signal” value in assay [2] came to 2.28.

B8: Phage-559 (peptide)
peptide: YCDGHLPQYMWKCL
notes: as for B1
For the molecule B8, the “Anti-CD28 Fab signal … of CD28” value in assay [1] is 0.12. Further, in assay [2], the “Anti-CD28 Fab (SEQ ID NOs: 696, 697) signal” value worked out at 2.29.

B9: Phage-579 (peptide)
peptide: YCAGHLPEYMEKCL
Consider B9, for which the “Anti-CD28 Fab signal … of CD28” value in assay [5] came to 0.12. Further, in assay [6], the “Anti-CD28 Fab (SEQ ID NOs: 696, 697) signal” value amounted to 2.24.

B10: Phage-555 (peptide)
peptide: YCEGHSSEYMLKCL
notes: as for B1
In the case of B10, the “Anti-CD28 Fab signal … of CD28” value in assay [1] amounted to 0.07. Besides, the “Anti-CD28 Fab (SEQ ID NOs: 696, 697) signal” value in assay [2] stood at 2.3.

B11: Phage-581 (peptide)
peptide: YCQGHLPEYMNKCL
With B11, the “Anti-CD28 Fab signal … of CD28” value in assay [5] amounted to 0.08. Also, in assay [6], the “Anti-CD28 Fab (SEQ ID NOs: 696, 697) signal” value turned out to be 2.24.

B12: Phage-553 (peptide)
peptide: YCDGHAPQYMRKCL
notes: as for B1
Take B12: the “Anti-CD28 Fab signal … of CD28” value in assay [1] was 0.07. In assay [2], the “Anti-CD28 Fab (SEQ ID NOs: 696, 697) signal” value is 2.3.

B13: Phage-575 (peptide)
peptide: YCEGHLPMYMEKCL
modifications: cysteine pairing not given here; also: displayed on phage by fusion to pIII, pIII and linker sequence not given here
Take B13: in assay [3], the “Anti-CD28 Fab signal … of CD28” value came out at 0.1. Moreover, the “Anti-CD28 Fab signal” value in assay [4] turned out to be 2.25.

B14: Phage-573 (peptide)
peptide: YCEGHSQEYMSKCL
modifications: cysteine pairing not given here; also: displayed on phage by fusion to pIII, pIII and linker sequence not given here
Take B14: the “Anti-CD28 Fab signal … of CD28” value in assay [3] worked out at 0.07. For the same molecule, the “Anti-CD28 Fab signal” value in assay [4] came to 2.26.

B15: Phage-585 (peptide)
peptide: YCDGHLPQYMNKCL
In the case of B15, the “Anti-CD28 Fab signal … of CD28” value in assay [5] was 0.1. For the same molecule, the “Anti-CD28 Fab (SEQ ID NOs: 696, 697) signal” value in assay [6] came out at 2.23.

B16: Phage-578 (peptide)
peptide: YCEGHSPEYMEKCL
modifications: cysteine pairing not given here; also: displayed on phage by fusion to pIII, pIII and linker sequence not given here
B16: the “Anti-CD28 Fab signal … of CD28” value in assay [3] was found to be 0.07. Besides, the “Anti-CD28 Fab signal” value in assay [4] amounted to 2.24.

B17: Phage-577 (peptide)
peptide: YCEGHSPLYMWKCL
modifications: cysteine pairing not given here; also: displayed on phage by fusion to pIII, pIII and linker sequence not given here
For the molecule B17, the “Anti-CD28 Fab signal … of CD28” value in assay [3] came to 0.06. The “Anti-CD28 Fab signal” value in assay [4] was 2.25.

B18: Phage-572 (peptide)
peptide: YCDGHAAEYMAKCL
modifications: cysteine pairing not given here; also: displayed on phage by fusion to pIII, pIII and linker sequence not given here
For B18, the “Anti-CD28 Fab signal … of CD28” value in assay [3] stood at 0.13. Besides, the “Anti-CD28 Fab signal” value in assay [4] was found to be 2.26.

B19: Phage-576 (peptide)
peptide: YCDGHLSEYMEKCL
modifications: cysteine pairing not given here; also: displayed on phage by fusion to pIII, pIII and linker sequence not given here
Consider B19, for which the “Anti-CD28 Fab signal … of CD28” value in assay [3] is 0.08. The “Anti-CD28 Fab signal” value in assay [4] amounted to 2.25.

B20: Phage-554 (peptide)
peptide: YCDGHAKEYMWKCL
notes: as for B1
On to B20, for which, in assay [1], the “Anti-CD28 Fab signal … of CD28” value was determined as 0.07. The “Anti-CD28 Fab (SEQ ID NOs: 696, 697) signal” value in assay [2] amounted to 2.3.

B21: Phage-558 (peptide)
peptide: YCDGHSREYIAKCL
notes: as for B1
As for B21, the “Anti-CD28 Fab signal … of CD28” value in assay [1] is 0.08. Besides, the “Anti-CD28 Fab (SEQ ID NOs: 696, 697) signal” value in assay [2] came to 2.29.

B22: Phage-569 (peptide)
peptide: YCDGHLPQYMMKCL
modifications: cysteine pairing not given here; also: displayed on phage by fusion to pIII, pIII and linker sequence not given here
As for B22, the “Anti-CD28 Fab signal … of CD28” value in assay [3] worked out at 0.14. Besides, the “Anti-CD28 Fab signal” value in assay [4] amounted to 2.27.

B23: Phage-563 (peptide)
peptide: YCDGHSQEYMMKCL
notes: as for B1
For the molecule B23, the “Anti-CD28 Fab signal … of CD28” value in assay [1] turned out to be 0.06. Moreover, the “Anti-CD28 Fab (SEQ ID NOs: 696, 697) signal” value in assay [2] came out at 2.28.

B24: Phage-568 (peptide)
peptide: YCEGHTPEYMQKCL
For B24, the “Anti-CD28 Fab signal … of CD28” value in assay [3] amounted to 0.07. In assay [4], the “Anti-CD28 Fab signal” value is 2.27.

B25: Phage-564 (peptide)
peptide: YCSGHLPQYMQKCL
notes: as for B1
Take B25: the “Anti-CD28 Fab signal … of CD28” value in assay [1] is 0.08. In addition, the “Anti-CD28 Fab (SEQ ID NOs: 696, 697) signal” value in assay [2] came out at 2.28.

B26: Phage-566 (peptide)
peptide: YCDGHAPQYMQKCL
Regarding B26, in assay [3], the “Anti-CD28 Fab signal … of CD28” value was determined as 0.11. Moreover, the “Anti-CD28 Fab signal” value in assay [4] stood at 2.28.

B27: Phage-556 (peptide)
peptide: YCEGHAAEYMEKCL
notes: as for B1
On to B27, for which the “Anti-CD28 Fab signal … of CD28” value in assay [1] worked out at 0.11. In addition, the “Anti-CD28 Fab (SEQ ID NOs: 696, 697) signal” value in assay [2] is 2.3.

B28: Phage-574 (peptide)
peptide: YCDGHLPEYLWKCL
modifications: cysteine pairing not given here; also: displayed on phage by fusion to pIII, pIII and linker sequence not given here
As to B28, in assay [3], the “Anti-CD28 Fab signal … of CD28” value was 0.13. In addition, in assay [4], the “Anti-CD28 Fab signal” value came to 2.26.

B29: Phage-580 (peptide)
peptide: YCEGHAWEYMAKCL
For the molecule B29, the “Anti-CD28 Fab signal … of CD28” value in assay [5] came out at 0.07. For the same molecule, the “Anti-CD28 Fab (SEQ ID NOs: 696, 697) signal” value in assay [6] is 2.24.

B30: Phage-582 (peptide)
peptide: YCDGHSQEYMAKCL
As to B30, the “Anti-CD28 Fab signal … of CD28” value in assay [5] turned out to be 0.08. Moreover, the “Anti-CD28 Fab (SEQ ID NOs: 696, 697) signal” value in assay [6] was determined as 2.24.

B31: Phage-588 (peptide)
peptide: YCDGHSAEYMAKCL
As for B31, the “Anti-CD28 Fab signal … of CD28” value in assay [5] stood at 0.07. Moreover, the “Anti-CD28 Fab (SEQ ID NOs: 696, 697) signal” value in assay [6] is 2.23.

B32: Phage-561 (peptide)
peptide: YCDGHLPMYMMKCL
notes: as for B1
In the case of B32, the “Anti-CD28 Fab signal … of CD28” value in assay [1] stood at 0.14. Also, in assay [2], the “Anti-CD28 Fab (SEQ ID NOs: 696, 697) signal” value worked out at 2.28.

B33: Phage-584 (peptide)
peptide: YCDGHLPLYLAKCL
As for B33, in assay [5], the “Anti-CD28 Fab signal … of CD28” value amounted to 0.09. In addition, the “Anti-CD28 Fab (SEQ ID NOs: 696, 697) signal” value in assay [6] amounted to 2.23.

B34: Phage-570 (peptide)
peptide: YCDGHSTEYLWKCL
modifications: cysteine pairing not given here; also: displayed on phage by fusion to pIII, pIII and linker sequence not given here
With B34, the “Anti-CD28 Fab signal … of CD28” value in assay [3] is 0.06. Moreover, the “Anti-CD28 Fab signal” value in assay [4] is 2.26.

B35: Phage-557 (peptide)
peptide: YCEGHSAQYMSKCL
notes: as for B1
For the molecule B35, in assay [1], the “Anti-CD28 Fab signal … of CD28” value is 0.07. Moreover, in assay [2], the “Anti-CD28 Fab (SEQ ID NOs: 696, 697) signal” value amounted to 2.29.
